The target of test [1] is claudin 18.1 (CLDN18.1) (human) (UniProt P56856). Nature of the test: FACS, hybridoma supernatant on HEK293-CLDN18.1. A general note: In flow cytometry, cells or beads pass a laser one at a time.
The target is the same in test [2]. Nature of the test: in-cell ELISA, hybridoma supernatant on HEK293-CLDN18.1 cells. A general note: ELISA stands for enzyme-linked immunosorbent assay.

Sequence of claudin 18.1 (CLDN18.1) (human) (P56856 whole entry): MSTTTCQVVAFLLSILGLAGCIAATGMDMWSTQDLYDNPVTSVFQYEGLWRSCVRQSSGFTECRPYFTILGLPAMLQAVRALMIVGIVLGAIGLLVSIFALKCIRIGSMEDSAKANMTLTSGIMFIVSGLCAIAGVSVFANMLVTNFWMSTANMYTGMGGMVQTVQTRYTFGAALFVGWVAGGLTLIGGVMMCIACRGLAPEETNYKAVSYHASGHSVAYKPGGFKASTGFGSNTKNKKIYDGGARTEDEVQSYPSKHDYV

B1: hybridoma clone 10-L9-A (antibody, V domains shown)
VH: EVQLVESGGGLVKPGGSRKLSCAASGFTFSDYGMHWVRQAPEKGLEWIAYINSGSSTIYYADTVKGRFTISRDNAKNTLFLQMTSLRSEDTAMFYCARFARGNVLDYWGQGTSVTVSS
VL: DIVMTQSPSSLTVTAGEKVTMSCRSSQSLLNSGNQRNYLTWYQQKPGHPPKLLIYWASTRESGVPDRFTGSGSGTDFTLTISGVQAEDLAVYYCQNGYSYPLTFGAGTKLEVK
The molecule B1 displayed an MFI in test [1] of 14300. The same molecule came in with an OD450/µg IgG in test [2] of 0.62 OD450/µg IgG.

The values above are taken from patent US20210009686A1.
